{"source": "paper PMC10272122", "about": "(2023)", "binders": {"B1": {"name": "ACE2 from Pipistrellus pipistrellus (Ppip ACE2) (receptor)", "chain": "TTEEEARDFLDKFNSEAENLSHESALASWDYNTNITDENAQKMNEADSKWSDFYKEQSKRAQAFPLQEIQNLTIKLQLQILQQNGSSVLTAEKSKRLSTILTTMSTIYSTGKVCNPNNPQQCFTLSGLEDIMEKSKDYHQRLWVWEGWRSEVGKQLRPLYEEYVVLKNEMARGNNYEDYGDYWRGDYETEGEDGYNYSRNQLMEDVDRIFLEIKPLYEQLHAYVRAKLMNAYPSRISPTGCLPAHLLGDMWGRFWTNLYNLTVPFEQKQNIDVTETMKKQSWDAEKIFKEAEKFYLSVGLYSMTQGFWNNSMLTEPSDGRQVVCHPTAWDLGEDDFRIKMCTKVTMDDFLTAHHEMGHIQYDMAYAKQPYLLRNGANEGFHEAVGEVMSLSVATPKHLKGMGLLPSDFSEDNETEINFLLKQALNIVGTLPFTYMLEKWRWMVFEGKIPKEQWMEKWWEMKREIVGVVEPLPHDETYCDPASLFHVANDYSFIRYFTRTILEFQFQEALCKIAKHEGPLHKCDISNSTEAGKKLKDMLELGKSKPWTYALNQIARTKEMDAKPLLNYFEPLFSWLKKQNGNSVGWSADWSPYSEQSLKVRISLISALGEKAYEWNDNEMYLFRSSVAYAMRVYFSKMNKTIPFTAEDVRVSDEKKRVSFKFFVTSPTNISDIIPRSEVEDAIRMSRSRINDA"}}, "target": "PDF-2180 RBD-hFc (PDF-2180)", "experiment": "BLI"}
{"binder": "B1", "values": [{"measurement": "Kd", "result": 417, "unit": "pM"}, {"measurement": "koff", "result": "5.54e-05", "unit": "s⁻¹"}]}
